Test: yeast display, Sf9 membrane polyspecificity reagent, FACS + sequencing; frameworks hold sequencing errors
Procedure, shortened: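 Using colony PCR, genes from sorted yeast display clones were amplified, then sequenced on MiSeq at 2 × 250 and filtered by CDR length. The clones had been stained with 10% biotinylated, detergent-solubilized Sf9 membrane reagent for 1 hour at 4 °C and sorted by FACS into low and high (top ~1%) gates on anti-HA and streptavidin fluorescence. Polyreactivity labels come from the gate of origin.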

Row | Sequence | polyreactivity (PSR sort gate)
1 | QVQLVESGGGLVQAGGSLRLSCAASGSTITVNDMGWYRQAPGKERELVAAITQRDGRTFYADSVKGRFTISRDNAKNTVYLQMNSLKPVDTSVYYFAADYVWYTYGDYDYWGLGTQVTVSS | low polyreactivity
2 | QVQLVESGGGLVQAGGSLRLSSAASGSIFYKNAKGWYRQAPGKEREFVAGISRRGGSTYYADSVKGRFTISLDNAKNTVYLQMNSLKPEDTAVYYCASSQSGGYDYWGQGTQVTVSS | high polyreactivity
3 | QVQLVESGGGLVKAGGSLRLSCAASGRTFGYYAMGWYRQSPGKERELVADIRQSGGRTYYADSVKGRFRISRDNAKNTVYLQMNSLKPVDTAVYYCAARRSYLAYTYRRSYPMDSWGQGTQVTVSS | high polyreactivity
4 | QVQLVESGGGLVQAGGSLRLSCAASGITFTAYAMGWYRQAPGKERELVATINSTGITNYADSVKGRFTISRDNAKNTFYLQMNCLKAEDTAVSYCGADVLDISSYDGMDYWGKGTQVTVSS | low polyreactivity
5 | QVQLVESGGCLVQAGGSLRLSCAASGRTFYFYAMGWYRQAPGKERELVASISWSGGRTNYADSVKGRFTSSRDNAKNTVYLQMNSLKPEDTAVHYCAARYVERHTDYYYWGQGTQVTVSS | low polyreactivity
6 | QVQLVESGGCLVQAGGSLRLSCAASGSIFAYYAMGWYRQAPGKERELVAAITSGDSTYYADSVKGRFTISRDNAKNTVYLQMNSLKPEDTAVYYCAADHIWFYFYLYDYWGQGTQVTVSS | low polyreactivity
7 | QVQLVESGGGLVQAGGILRISCAASGFIFYPYAMGWYRQAPGKERELVATIDGGGSTYYADSVKGRFTISRDNAKNTVYLQMNSLKPEDSAVYYCDASQWSNYDNWGQGNQVTVSS | low polyreactivity
8 | QVQLVESGGGLVQAGGSLRLSCAASGSIFPIYAMGWYRQAPGKERELVAALNRSGGSTYYADSVKGRFTISRDNAKNTVYLQMNSLKPEDTAVYYCNADYGYHNQLFWGYYGWSSDHWGQGTQVTVSS | low polyreactivity
9 | QVQLVESGGGLVQAGGSLRLSCAASGFIFEYYVMGWYRQAPGKERELVAAISGSGGSTNYADSVKGRFTISRDNAKNTVYLQMNSLKPEDTAVYYCAARYYYFSANIFRYYYWGQGTQVTVSS | high polyreactivity
10 | QVQLVESGGGLVQAGGSLRLSCAASGSIFGDYAMGWYRQAPGKERELVAAITWSGGSTTYADSVKGRFTISRDNAKNTVYLQMNSLKPEDTAVYCCAVYGWRFYSYDDYFDFNYWGQGTQVTVSS | low polyreactivity
11 | QVQLVESGGGLVHAGGSHRLSCAASGSIFPYYTMGWYRQAPGKEREMVAAISGSGTSTYYADSVKGRFTISRDNAKNTVYLQMNSLKPEDTAVYYCAADFRYYVTSLKYDYWGQGTQVTVSS | low polyreactivity
12 | QVQLVESGGGLVQAGGSLRLSCSASGFTFYRYAMGWYRQAPGKERELVAAITSGGSTYYADSVKGRFTISRDNAKNTVYLQMNSLKPEDTAVYYCAAQKARVFRGAWTRYEYWGQGTQVTVSS | high polyreactivity
13 | QVQLVESGGGLVQAGGSLRLSCAASGRIFYNYAMGWYRQAPGKERELVAAISGSGGSTYYADSVKGRFTISRDNAKNTVYLQMNSLKPEDTEVYYCSTSGPQYYSRNFDYWGQGTQVTVSS | low polyreactivity
14 | QVQLVESGGGLVQAGGSLRLSCAASGIIFTYAMGWYRQAPGKERELVAAIDWRGGRTYYADSVKGRFTISRDNAKNTVYLQMNSLKPEDTAVYYCAVGVLYAGYFYRYRYYYWGQGTQVTVSS | high polyreactivity
15 | QVQLVESGGGLVQAGVSLRLSCAASGSTYNAMGWYRQAPGKEREFVAAITSSGGSTYYADSVKGRFTISRDNAKNTVYLHMNSLNPEDTAVYYCASSYWTAWYQLDYWGQGTQVTVSS | high polyreactivity
16 | QVQLVESGGGLVQAGGSLRLSCAASGSTFSYYAMGWYRQAPGKEMELVAAIRSGGSTYYADSVKGRFTISRDNAKNTVYLQMNSLKPEDTAVYYCNADYIRASTLKYGTIYYWHYDYWGQGTQVTVSS | high polyreactivity
17 | QVQLVESGGGLVQAGGSLRLSCAASGRTFAFYTMGWYIQAPGKERELVAAITRTGSTSYADSVKGRFTISRDNAKNTVYLQMNSLKPEDTAVYFCASVGYPYTLWHQMDYWGQGTQVTVSS | low polyreactivity
18 | QVQLVESGGGLVQAGGSLRLSCAASGSTFGYYAMGWYRQAPGKERELVAAITSGGSTYYADSVKGRFTISRDNAKNTVYLQMNSLKPEDTAVYYCNRTYYWYWRYDYWGQGTQVTVSS | low polyreactivity
19 | QVQLVESGGGLVQAGGSLRLSCAASGFTFGAYAMGWYRQAPGKERELVAAITRSSTSTFYADSVKGRFTISRDNAKNTVYLQMNSLKPEDTAVYYCAARGRPRYYSYAGDYWGQGTQVTVSS | high polyreactivity
20 | QVQHVESGGGLVQAGGSLRLSCAASGRIFYGNAMGWYRQAPGKERELVAGITRSSGTSTDYADSVKGRFTISRDNAKNSVYLQMNSMKPEDCAVYYCAAPPDSYYFYKVPVVPYDYWGQGTQVTVSS | low polyreactivity
21 | QVQLVDSGGGLVQAGGSLRLSCAASGSTFRVNAMGWYRQAPGKERELGAAISGSGSGTYYADSVKGRFTISRDNAKNTVYLLMNSLKPEDTAVYYCAKVPKSRGYVGGMDYWGQGTQVTVSS | low polyreactivity
22 | QVQLVESGGGLVQAGGSLRLSCASSGSTFYSYVMGWYRQAPGKERELVAAITYSGGRTYYADSVKGRFTISRDNEKNTVYFQMYSLKPEDTAVYYCAKRVFNYQRYDYWGQGTQVTVSS | high polyreactivity

Row | Sequence | polyreactivity (PSR sort gate)
23 | QVQLVESGGGLVQAGGSLRLSCAASGSIFDHTKAMGRYRQSPGKERELVAGITRGGSTNYADSVKGRFTISRDNAKNTFYLQMNSLKPEDTAVYYCAKAMPAKFYSEAGYDYWGQGTQVTVSS | low polyreactivity
24 | QVQLVESGGGLVQAGGSLRLSCAASGRTFRSNAMGWYRQAPGKERELVAVITRSGGSTDYADSVKGRFTISRDNAKNTVYLQMNSLKPEDTAVYYCAVRRYDYWGQVTQVTVSS | high polyreactivity
25 | QVQLEESGGGLVQAGGSLRLSCAASGIIFAANAMGWYRQAPGKERELVAAISKNGGITYYADSVKGRFTISRDNAKNTVYLQMNSLKPEDTAVYYCAARWRQTRRYYYWGQGTQVTVSS | high polyreactivity
26 | QVLLVESGGGLVQAGGSLRLSCAASGSIFYGYPMGWYRQAPGKERELVADIRSSGGSTYYADSVKGRFTISRDNAMNTVYLQMNSLKPEDTAVYYCAADSQELHQNSDYWGQGTQVTVSS | low polyreactivity
27 | QVQLVESGGGLVQAGGSLRLSCAASGSIFVHYAMGWSRQAPGKERELVAAITTSGGSTYYADSVKGRFTISRDNAKNTVYLQMNSLKPEDTAVYYCNARAVRYPFTGNYWAQGTQVTVSS | high polyreactivity
28 | QVQLVESGGGLVQAGGSLRLSCAASGLTFSIYAMGWYRQAPGKERELVAGISQSGGSTYADSVKGRFTISRDNAKNTVYLQMNSLKPADTAVYYCAKEFEWVGSPSTVDGLDYWGHGTQVTVSS | low polyreactivity
29 | QVQLVESGGGLVQAGGSLRLSCAASGFIFGDKAMGWYRQAPGKERELVAAINSGSRTSYADSVKGRFTISRDNAKNTVYLQMNSLNPEDTAVYYCAAESVSSGDNASRYDYWGQGTQVTVSS | low polyreactivity
30 | QVQLVESGGGLVQAGGSLRLSCAASGFIFVRYAMGWYRPAPGKERELVAVITSGGSTYYADSVKGRFTISRDNAKNTVYLQMNSLKPEDTAVYYCAAQSKRYVRSYSWYDYWGQGTQVTVSS | high polyreactivity
31 | KVQLVESGGGLFQAGGSLSLSCAATGSSYGGYVMGWYRQAPGKERELVASISGNGASTTYADSVKGRFTISRDNAKNTVYLQMNSLKQEDTAVYYCNARDWYIVWYEYWGQGTQVTVSS | low polyreactivity
32 | QVQLVESGGGLVQAGGSLRLSCAATGSTFTAYAMSWYRQAPGKESELVAAIRRIGGDTYYADSVKGLFTISRDNAKNTVYLQMNSLKPEDTAVYYCAAFRWRSLQYWYHSMDLWGQGSQVTVSS | low polyreactivity
33 | QVQLVESGGGLVQAGGSLRLSCAASGFTFKKNAMGWYRQAPGTERELVAAISRSGGITYYADSVKGRFTISRDNAKNTVYLQMNSLKPEDTAVYYCATQTYRTPGYYYWGEGTQVTVSS | high polyreactivity
34 | QVQLVESCGGLVQAGGSLRLSCAGSGSTFVYYAMGWSRQAPGQERELVAAISRSGGSTYYADSVKGRFTISRDNAKNTVYLQMHSLKPEDTAVYYCNKYAIFPAYRYPRSDYWGQGTQVTVSS | high polyreactivity
35 | QVQLVESGGGLVQAGGSLRLSCAASGYTFSFYAMGWYRQAPGKERELVATISWRGGSTYYADSVKGRFTISRDNAKNTVYLQMNSLKPEDTAVYYCNIVDKTGSKMDYWGQGTQVTVSS | high polyreactivity
36 | QVQLVESGGGLVQAGGSLRLSCAATGSIFGDNAMGWYRQAPGKARELVAAITSSGGSTYYADSVKGRFTISRDNAKNTVYLQMNSLKPEDTAVYYCNADFGYGWYLRYDYWGQGSQVTVSS | high polyreactivity
37 | QVQLVESGGGLVQAGGSLRLSCAASGFIFYQYAMGWYRQAPGKERELVAVINKSGGRTYYADSVKGRFTISRDNAKNTVYLQMNSLKPEDPAVYYCNAVSKLAVNLDYWGQGTQVTVSS | high polyreactivity
38 | QVQLVESGGGLVQAGGSLRLSCAASGIIFNDYAMGWYRQAPGNERELVATISWSGGSTYADSVKGLFTISRDNAKNTVYLQMNSLKPEDTAVYYCANQPTVYHHYGLGYWGQGTQVTVSS | low polyreactivity
39 | QVQLVESGGGLVQAGGSLRLSCAASGSIFLYYVMGWYRQAPGKERELVAAITWDGGSTYYADSVKGRFTISRDNAKNTVYLQMNSLKPEDTAVYYCNADTIVAWFDIFEEMDSWGQGTQVTVSS | low polyreactivity
40 | QVQLVESGGGLVQAGGSLRLSCAASGRTFDLYAMGWYRQAPGKERELVAAISGRGGRTYYADSVKGRFTISRDNAKNTVYLQMNSLKPEDTAVYYCAARTGATSRIRFDYWGQGTQVTVSS | low polyreactivity
41 | QVQLVESGGGLVQAGGSLRLSCAASGRIFWGYVMGWYRQAPGKERELVAAISSGGDTHYADSVKGRFTISRDNAKNTVYLQMNSLKPEDTAVYYCAKENQYYDSKVAGVLTGLYDYWGQGTQVTVSS | low polyreactivity
42 | QVQLVESGGGLVQAGGSLRLSCADSGRIFWANAMGWYRQAPGKERELVAAITWRGTSTYYADSVKGRFTISRDNAKNTVYLQMNSLKPEDTAVYYCAKVPYLKYGYDYWGQGTQVTVSS | high polyreactivity
43 | QVQLVESGGGLVQARGSLRLSCAASGRTFVDYVMGWYRQAPGKERELVAAITYSGGSTSYADSVKGRFTISRDYAKNNFNLQMNSLKPEDTAVYYCNADGDHPYSRNDYWGQGTQVTVSS | low polyreactivity

— the nanobody polyreactivity screen of Harvey et al. (2022)
